Data set [1] has as its target EcoPI Res subunit (wild type, untagged) (Escherichia coli). The data set is described as follows: SEC-MALS; 0.5–1.0 mg/ml (1.25–2.5 µM) enzyme, Superdex 200, Standard Assay Buffer minus BSA (50 mM Tris–HCl pH 8.0, 50 mM KCl, 10 mM MgCl2, 1 mM DTT), room temperature; enzyme alone or with excess Hex-labelled specific 50-mer DNA, with or without 1 mM ATP. On the technique in general: SEC sorts molecules by how far they enter the pores of the column.

Data set [2] shares this target. The data set is described as follows: native MS; enzyme only, 10 µM, dialysed against 100 mM ammonium acetate pH 7.0; Q-TOF II modified for high-mass operation.
The target in the next data set is PstII Mod subunit. Description: SEC-MALS; 0.5–1.0 mg/ml (1.25–2.5 µM) enzyme, Superdex 200, Standard Assay Buffer minus BSA (50 mM Tris–HCl pH 8.0, 50 mM KCl, 10 mM MgCl2, 1 mM DTT), room temperature; enzyme alone or with excess Hex-labelled specific 50-mer DNA, with or without 1 mM ATP.
The target in the next data set is PstII Res subunit. The description is as above.
The target of data set [3] is EcoPI holoenzyme (Res1Mod2) (Escherichia coli, UniProt P08764;P08763 1-970;1-646). Description: native MS; no ATP; 1:1 complex 288.1 kDa; SEC-MALS: 50 mM Tris-HCl pH 8.0, 50 mM KCl, 10 mM MgCl2, 1 mM DTT, 0.1 mg/ml BSA (Standard Assay Buffer), 20 C; native MS: volatile ammonium acetate buffer, enzyme:DNA 1:2. As to conditions: protein: recombinant; tags: none; copies: 1;2.

For the molecule EcoPI Mod subunit (untagged) (enzyme), the stoichiometry N in data set [1] and in data set [2] was 2 Mod per Res in each case. In the case of PstII Mod subunit (enzyme), the stoichiometry N – broadly, a count of units in the complex or per binding partner – in the data set with PstII Mod subunit is 2; in the data set with PstII Res subunit, 2 Mod per Res.

B1: EcoPI specific 50-mer duplex (sDNA), native MS (dsDNA)
DNA 1: TGGCTTAGACCCAGCGCAGATACCAAAACTGTCCTTCTATTGACAATTCG
DNA 2: CGAATTGTCAATAGAAGGACAGTTTTGGTATCTGCGCTGGGTCTAAGCCA
As to B1, the binding result in data set [3] is “binds”.

Source of the values: publication PMC4005696, “Type III restriction endonucleases are heterotrimeric: comprising one helicase–nuclease subunit and a dimeric methyltransferase that binds only one specific DNA” (Nucleic Acids Research, 2014).
